From publication PMC7251095

Biological target: E. coli F1Fo ATP synthase subunit b (cysteine free) (E. coli) (UniProt P0ABA0)
Assay: cryo-EM structure; detergent-solubilized (digitonin) cysteine free E. coli F1Fo ATP synthase at 11 μM with 10 mM MgADP, 22 °C for 30 s before freezing; 300 kV; nine sub-states and a Fo focused map of Sub-state 3A

stoichiometry N: 2
Substance: E. coli F1Fo ATP synthase subunit b (cysteine free) (from UniProt P0ABA0 1-156) (natural protein)
